Measured values as given in paper PMC2599808.

What was measured:
[1] = molecular target: recombinant wild-type cardiac troponin T (rat) (UniProt P50753); assay: native gel or EMSA
[2] = molecular target: recombinant wild-type cardiac troponin C (chicken) (UniProt P09860); assay: native gel or EMSA

| stoichiometry N [1] | stoichiometry N [2] | Substance |
| --- | --- | --- |
| 1 | 1 | cTnI(151C), cardiac troponin I single-cysteine mutant C81I/C98S/S151C labeled with AEDANS (from UniProt P48787 1-211) (natural protein) |
| 1 | 1 | cTnI(210C), cardiac troponin I single-cysteine mutant C81I/C98S/E210C labeled with AEDANS (from UniProt P48787 1-211) (natural protein) |
| 1 | 1 | cTnI(160C), cardiac troponin I single-cysteine mutant C81I/C98S/L160C labeled with AEDANS (from UniProt P48787 1-211) (natural protein) |
| 1 | 1 | cTnI(167C), cardiac troponin I single-cysteine mutant C81I/C98S/S167C labeled with AEDANS (from UniProt P48787 1-211) (natural protein) |
| 1 | 1 | cTnI(188C), cardiac troponin I single-cysteine mutant C81I/C98S/E188C labeled with AEDANS (from UniProt P48787 1-211) (natural protein) |
| 1 | 1 | cTnI(131C), cardiac troponin I single-cysteine mutant C81I/C98S/Q131C labeled with AEDANS (from UniProt P48787 1-211) (natural protein) |
